Target: Human CD137 ECD (human)
Test: SPR, vs parent H183/L072

Chain of Human CD137 ECD (human) (chain, as listed by the source limits assumed): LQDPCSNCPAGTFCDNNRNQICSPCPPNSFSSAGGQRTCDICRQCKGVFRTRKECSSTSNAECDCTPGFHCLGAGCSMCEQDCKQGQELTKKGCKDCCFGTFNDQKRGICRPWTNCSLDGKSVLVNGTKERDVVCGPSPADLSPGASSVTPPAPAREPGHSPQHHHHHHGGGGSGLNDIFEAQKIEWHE

Binder	fold change of affinity
dBBDu183H H93F / dBBDu072L (antibody, name in Kabat numbering, V domains shown) VH: QVQLVESGGGLVQPGRSLRLSCAASGFTFSNAWMHWVRQAPGKGLEWVAQIKDKGNAYAAYYAPSVKGRFTISRDDSKNSIYLQMNSLKTEDTAVYYCFYVHYASASTVLPAFGVDAWGQGTTVTVSS VL: DIVMTQSPLSLPVTPGEPASISCQASQELVHMNRNTYLHWYQQKPGQAPRLLIYKVSNRFPGVPDRFSGSGSGTDFTLKISRVEAEDVGVYYCAQGTSVPFTFGQGTKLEIK	0 fold
dBBDu183H A100W / dBBDu072L (antibody, name in Kabat numbering, V domains shown) VH: QVQLVESGGGLVQPGRSLRLSCAASGFTFSNAWMHWVRQAPGKGLEWVAQIKDKGNAYAAYYAPSVKGRFTISRDDSKNSIYLQMNSLKTEDTAVYYCHYVHYASWSTVLPAFGVDAWGQGTTVTVSS VL: DIVMTQSPLSLPVTPGEPASISCQASQELVHMNRNTYLHWYQQKPGQAPRLLIYKVSNRFPGVPDRFSGSGSGTDFTLKISRVEAEDVGVYYCAQGTSVPFTFGQGTKLEIK	0 fold
dBBDu183H A100fF / dBBDu072L (antibody, name in Kabat numbering, V domains shown) VH: QVQLVESGGGLVQPGRSLRLSCAASGFTFSNAWMHWVRQAPGKGLEWVAQIKDKGNAYAAYYAPSVKGRFTISRDDSKNSIYLQMNSLKTEDTAVYYCHYVHYASASTVLPFFGVDAWGQGTTVTVSS VL: DIVMTQSPLSLPVTPGEPASISCQASQELVHMNRNTYLHWYQQKPGQAPRLLIYKVSNRFPGVPDRFSGSGSGTDFTLKISRVEAEDVGVYYCAQGTSVPFTFGQGTKLEIK	0 fold
dBBDu183H L100dF / dBBDu072L (antibody, name in Kabat numbering, V domains shown) VH: QVQLVESGGGLVQPGRSLRLSCAASGFTFSNAWMHWVRQAPGKGLEWVAQIKDKGNAYAAYYAPSVKGRFTISRDDSKNSIYLQMNSLKTEDTAVYYCHYVHYASASTVFPAFGVDAWGQGTTVTVSS VL: DIVMTQSPLSLPVTPGEPASISCQASQELVHMNRNTYLHWYQQKPGQAPRLLIYKVSNRFPGVPDRFSGSGSGTDFTLKISRVEAEDVGVYYCAQGTSVPFTFGQGTKLEIK	0 fold
dBBDu183H A102F / dBBDu072L (antibody, name in Kabat numbering, V domains shown) VH: QVQLVESGGGLVQPGRSLRLSCAASGFTFSNAWMHWVRQAPGKGLEWVAQIKDKGNAYAAYYAPSVKGRFTISRDDSKNSIYLQMNSLKTEDTAVYYCHYVHYASASTVLPAFGVDFWGQGTTVTVSS VL: DIVMTQSPLSLPVTPGEPASISCQASQELVHMNRNTYLHWYQQKPGQAPRLLIYKVSNRFPGVPDRFSGSGSGTDFTLKISRVEAEDVGVYYCAQGTSVPFTFGQGTKLEIK	0 fold
dBBDu183H H93W / dBBDu072L (antibody, name in Kabat numbering, V domains shown) VH: QVQLVESGGGLVQPGRSLRLSCAASGFTFSNAWMHWVRQAPGKGLEWVAQIKDKGNAYAAYYAPSVKGRFTISRDDSKNSIYLQMNSLKTEDTAVYYCWYVHYASASTVLPAFGVDAWGQGTTVTVSS VL: DIVMTQSPLSLPVTPGEPASISCQASQELVHMNRNTYLHWYQQKPGQAPRLLIYKVSNRFPGVPDRFSGSGSGTDFTLKISRVEAEDVGVYYCAQGTSVPFTFGQGTKLEIK	0 fold
dBBDu183H D101F / dBBDu072L (antibody, name in Kabat numbering, V domains shown) VH: QVQLVESGGGLVQPGRSLRLSCAASGFTFSNAWMHWVRQAPGKGLEWVAQIKDKGNAYAAYYAPSVKGRFTISRDDSKNSIYLQMNSLKTEDTAVYYCHYVHYASASTVLPAFGVFAWGQGTTVTVSS VL: DIVMTQSPLSLPVTPGEPASISCQASQELVHMNRNTYLHWYQQKPGQAPRLLIYKVSNRFPGVPDRFSGSGSGTDFTLKISRVEAEDVGVYYCAQGTSVPFTFGQGTKLEIK	0 fold
dBBDu183H A98F / dBBDu072L (antibody, name in Kabat numbering, V domains shown) VH: QVQLVESGGGLVQPGRSLRLSCAASGFTFSNAWMHWVRQAPGKGLEWVAQIKDKGNAYAAYYAPSVKGRFTISRDDSKNSIYLQMNSLKTEDTAVYYCHYVHYFSASTVLPAFGVDAWGQGTTVTVSS VL: DIVMTQSPLSLPVTPGEPASISCQASQELVHMNRNTYLHWYQQKPGQAPRLLIYKVSNRFPGVPDRFSGSGSGTDFTLKISRVEAEDVGVYYCAQGTSVPFTFGQGTKLEIK	0 fold
dBBDu183H A100F / dBBDu072L (antibody, name in Kabat numbering, V domains shown) VH: QVQLVESGGGLVQPGRSLRLSCAASGFTFSNAWMHWVRQAPGKGLEWVAQIKDKGNAYAAYYAPSVKGRFTISRDDSKNSIYLQMNSLKTEDTAVYYCHYVHYASFSTVLPAFGVDAWGQGTTVTVSS VL: DIVMTQSPLSLPVTPGEPASISCQASQELVHMNRNTYLHWYQQKPGQAPRLLIYKVSNRFPGVPDRFSGSGSGTDFTLKISRVEAEDVGVYYCAQGTSVPFTFGQGTKLEIK	0 fold
dBBDu183H G100hF / dBBDu072L (antibody, name in Kabat numbering, V domains shown) VH: QVQLVESGGGLVQPGRSLRLSCAASGFTFSNAWMHWVRQAPGKGLEWVAQIKDKGNAYAAYYAPSVKGRFTISRDDSKNSIYLQMNSLKTEDTAVYYCHYVHYASASTVLPAFFVDAWGQGTTVTVSS VL: DIVMTQSPLSLPVTPGEPASISCQASQELVHMNRNTYLHWYQQKPGQAPRLLIYKVSNRFPGVPDRFSGSGSGTDFTLKISRVEAEDVGVYYCAQGTSVPFTFGQGTKLEIK	0 fold
dBBDu183H A98W / dBBDu072L (antibody, name in Kabat numbering, V domains shown) VH: QVQLVESGGGLVQPGRSLRLSCAASGFTFSNAWMHWVRQAPGKGLEWVAQIKDKGNAYAAYYAPSVKGRFTISRDDSKNSIYLQMNSLKTEDTAVYYCHYVHYWSASTVLPAFGVDAWGQGTTVTVSS VL: DIVMTQSPLSLPVTPGEPASISCQASQELVHMNRNTYLHWYQQKPGQAPRLLIYKVSNRFPGVPDRFSGSGSGTDFTLKISRVEAEDVGVYYCAQGTSVPFTFGQGTKLEIK	0 fold

Results, then the binder that gave them:

fold change of affinity	Binder
0 fold	dBBDu183H S99W / dBBDu072L (antibody, name in Kabat numbering, V domains shown) VH: QVQLVESGGGLVQPGRSLRLSCAASGFTFSNAWMHWVRQAPGKGLEWVAQIKDKGNAYAAYYAPSVKGRFTISRDDSKNSIYLQMNSLKTEDTAVYYCHYVHYAWASTVLPAFGVDAWGQGTTVTVSS VL: DIVMTQSPLSLPVTPGEPASISCQASQELVHMNRNTYLHWYQQKPGQAPRLLIYKVSNRFPGVPDRFSGSGSGTDFTLKISRVEAEDVGVYYCAQGTSVPFTFGQGTKLEIK
0 fold	dBBDu183H P100eF / dBBDu072L (antibody, name in Kabat numbering, V domains shown) VH: QVQLVESGGGLVQPGRSLRLSCAASGFTFSNAWMHWVRQAPGKGLEWVAQIKDKGNAYAAYYAPSVKGRFTISRDDSKNSIYLQMNSLKTEDTAVYYCHYVHYASASTVLFAFGVDAWGQGTTVTVSS VL: DIVMTQSPLSLPVTPGEPASISCQASQELVHMNRNTYLHWYQQKPGQAPRLLIYKVSNRFPGVPDRFSGSGSGTDFTLKISRVEAEDVGVYYCAQGTSVPFTFGQGTKLEIK
0 fold	dBBDu183H V95F / dBBDu072L (antibody, name in Kabat numbering, V domains shown) VH: QVQLVESGGGLVQPGRSLRLSCAASGFTFSNAWMHWVRQAPGKGLEWVAQIKDKGNAYAAYYAPSVKGRFTISRDDSKNSIYLQMNSLKTEDTAVYYCHYFHYASASTVLPAFGVDAWGQGTTVTVSS VL: DIVMTQSPLSLPVTPGEPASISCQASQELVHMNRNTYLHWYQQKPGQAPRLLIYKVSNRFPGVPDRFSGSGSGTDFTLKISRVEAEDVGVYYCAQGTSVPFTFGQGTKLEIK
0 fold	dBBDu183H V95W / dBBDu072L (antibody, name in Kabat numbering, V domains shown) VH: QVQLVESGGGLVQPGRSLRLSCAASGFTFSNAWMHWVRQAPGKGLEWVAQIKDKGNAYAAYYAPSVKGRFTISRDDSKNSIYLQMNSLKTEDTAVYYCHYWHYASASTVLPAFGVDAWGQGTTVTVSS VL: DIVMTQSPLSLPVTPGEPASISCQASQELVHMNRNTYLHWYQQKPGQAPRLLIYKVSNRFPGVPDRFSGSGSGTDFTLKISRVEAEDVGVYYCAQGTSVPFTFGQGTKLEIK
0 fold	dBBDu183H V100cF / dBBDu072L (antibody, name in Kabat numbering, V domains shown) VH: QVQLVESGGGLVQPGRSLRLSCAASGFTFSNAWMHWVRQAPGKGLEWVAQIKDKGNAYAAYYAPSVKGRFTISRDDSKNSIYLQMNSLKTEDTAVYYCHYVHYASASTFLPAFGVDAWGQGTTVTVSS VL: DIVMTQSPLSLPVTPGEPASISCQASQELVHMNRNTYLHWYQQKPGQAPRLLIYKVSNRFPGVPDRFSGSGSGTDFTLKISRVEAEDVGVYYCAQGTSVPFTFGQGTKLEIK
0 fold	dBBDu183H S99F / dBBDu072L (antibody, name in Kabat numbering, V domains shown) VH: QVQLVESGGGLVQPGRSLRLSCAASGFTFSNAWMHWVRQAPGKGLEWVAQIKDKGNAYAAYYAPSVKGRFTISRDDSKNSIYLQMNSLKTEDTAVYYCHYVHYAFASTVLPAFGVDAWGQGTTVTVSS VL: DIVMTQSPLSLPVTPGEPASISCQASQELVHMNRNTYLHWYQQKPGQAPRLLIYKVSNRFPGVPDRFSGSGSGTDFTLKISRVEAEDVGVYYCAQGTSVPFTFGQGTKLEIK
0 fold	dBBDu183H S100aF / dBBDu072L (antibody, name in Kabat numbering, V domains shown) VH: QVQLVESGGGLVQPGRSLRLSCAASGFTFSNAWMHWVRQAPGKGLEWVAQIKDKGNAYAAYYAPSVKGRFTISRDDSKNSIYLQMNSLKTEDTAVYYCHYVHYASAFTVLPAFGVDAWGQGTTVTVSS VL: DIVMTQSPLSLPVTPGEPASISCQASQELVHMNRNTYLHWYQQKPGQAPRLLIYKVSNRFPGVPDRFSGSGSGTDFTLKISRVEAEDVGVYYCAQGTSVPFTFGQGTKLEIK
0 fold	dBBDu183H V100iF / dBBDu072L (antibody, name in Kabat numbering, V domains shown) VH: QVQLVESGGGLVQPGRSLRLSCAASGFTFSNAWMHWVRQAPGKGLEWVAQIKDKGNAYAAYYAPSVKGRFTISRDDSKNSIYLQMNSLKTEDTAVYYCHYVHYASASTVLPAFGFDAWGQGTTVTVSS VL: DIVMTQSPLSLPVTPGEPASISCQASQELVHMNRNTYLHWYQQKPGQAPRLLIYKVSNRFPGVPDRFSGSGSGTDFTLKISRVEAEDVGVYYCAQGTSVPFTFGQGTKLEIK
0 fold	dBBDu183H Y94W / dBBDu072L (antibody, name in Kabat numbering, V domains shown) VH: QVQLVESGGGLVQPGRSLRLSCAASGFTFSNAWMHWVRQAPGKGLEWVAQIKDKGNAYAAYYAPSVKGRFTISRDDSKNSIYLQMNSLKTEDTAVYYCHWVHYASASTVLPAFGVDAWGQGTTVTVSS VL: DIVMTQSPLSLPVTPGEPASISCQASQELVHMNRNTYLHWYQQKPGQAPRLLIYKVSNRFPGVPDRFSGSGSGTDFTLKISRVEAEDVGVYYCAQGTSVPFTFGQGTKLEIK
0 fold	dBBDu183H T100bF / dBBDu072L (antibody, name in Kabat numbering, V domains shown) VH: QVQLVESGGGLVQPGRSLRLSCAASGFTFSNAWMHWVRQAPGKGLEWVAQIKDKGNAYAAYYAPSVKGRFTISRDDSKNSIYLQMNSLKTEDTAVYYCHYVHYASASFVLPAFGVDAWGQGTTVTVSS VL: DIVMTQSPLSLPVTPGEPASISCQASQELVHMNRNTYLHWYQQKPGQAPRLLIYKVSNRFPGVPDRFSGSGSGTDFTLKISRVEAEDVGVYYCAQGTSVPFTFGQGTKLEIK
